Experimental data as given in paper PMC8295500, “Co-Immobilized Capillary Enzyme Reactor Based on Beta-Secretase1 and Acetylcholinesterase: A Model for Dual-Ligand Screening” (Frontiers in Chemistry, 2021).

Substrate: CC(=O)OCC[N+](C)(C)C
Assay: purified protein
Assay type: biochemical, Homo sapiens

B1: acetylcholinesterase (huAChE) (Homo sapiens) (protein)
chain: EGREDAELLVTVRGGRLRGIRLKTPGGPVSAFLGIPFAEPPMGPRRFLPPEPKQPWSGVVDATTFQSVCYQYVDTLYPGFEGTEMWNPNRELSEDCLYLNVWTPYPRPTSPTPVLVWIYGGGFYSGASSLDVYDGRFLVQAERTVLVSMNYRVGAFGFLALPGSREAPGNVGLLDQRLALQWVQENVAAFGGDPTSVTLFGESAGAASVGMHLLSPPSRGLFHRAVLQSGAPNGPWATVGMGEARRRATQLAHLVGCPPGGTGGNDTELVACLRTRPAQVLVNHEWHVLPQESVFRFSFVPVVDGDFLSDTPEALINAGDFHGLQVLVGVVKDEGSYFLVYGAPGFSKDNESLISRAEFLAGVRVGVPQVSDLAAEAVVLHYTDWLHPEDPARLREALSDVVGDHNVVCPVAQLAGRLAAQGARVYAYVFEHRASTLSWPLWMGVPHGYEIEFIFGIPLDPSRNYTAEEKIFAQRLMRYWANFARTGDPNEPRDPKAPQWPPYTAGAQQYVSLDLRPLEVRRGLRAQACAFWNRFLPKLLSATDTLDEAERQWKAEFHRWSSYMVHWKNQFDHYSKQDRCSDL
notes: human recombinant, expressed in HEK 293 cells; immobilized on fused silica capillary
  Km: 23.3 ± 1 µM
